The numbers were not newly measured in paper PMC8227800, which cites them from elsewhere.

For this series, the target named is Cdh2 (Danio rerio) (UniProt Q90275).

Turning to Cdh2 (from UniProt Q90275), the equilibrium dissociation constant (Kd) was 0.2 µM.
